According to patent US9533026B2, “Polypeptide compounds for inhibiting angiogenesis and tumor growth” (VasGene Therapeutics, Inc., priority 2004, dated 2017):
Where two headings read alike, the source gives them in different places.

How the values were obtained:
EphrinB2 [1] = biological target: T1, EphrinB2 (Homo sapiens, UniProt P52799); assay: EphrinB2 (B2-AP) binding assay on affinity magnetic beads; conditions: for order of binding activity: SP column fractions 1, 2 and 3
T1 construct: protein fusion of Ephrin B2 ectodomain with placental alkaline phosphatase
Description: To test whether the B4-HSA fusion property retained the ability of the EphB4 extracellular domain to bind to EphrinB2, the ability of the purified B4-HSA fusion was compared to that of GCF2F, GCF2, GC, CF and B4-Fc fusion, which comprises the extracellular domain of B4 fused to hIgG1 Fc as described in Example 1. Biotinylated or His-tag protein samples were inoculated with the corresponding affinity magnetic beads and B2-AP for an hour at room temperature, before addition of PnPP. Results of binding assays are shown on FIG. 67.
Fractions 1, 2 and 3 of biotinylated and PEGylated sB4 from the SP column purification, corresponding to polypegylated, monopegylated and unpegylated biotinylated sB4, were tested for their ability to bind EphrinB2 using the standard assay. Results of this experiment are shown on FIG. 72.

[2] = In vivo stability in mice after intravenous injection; design: species or system mouse; conditions: for stability in vivo relative to sB4 / EphB4 ectodomain: mice
Description: The stability of the purified biotinylated sB4 and sB4-HSA were assayed in vivo. Each of the proteins were intravenously injected into the tail of mice in the amount of 0.5 nmoles per mouse. Blood from the eye of each mouse was taken in time frames of 15 min (0 days), 1, 2, 3 and 6 days. […] of obtained serum was used in binding assay with Ephrin-B2-Alkaline Phosphatase fusion protein and Streptavidin-coated magnetic beads as a solid phase. […] For example, one day after injection, the levels of sB4-HSA in the blood of the mice were 5-fold greater than those of sB4.
Fractions 1, 2 and 3 of biotinylated and PEGylated sB4 from the SP column purification, corresponding to polypegylated, monopegylated and unpegylated biotinylated sB4, were introduced by intravenous injection into mice in the amount of 0.5 nMoles/mouse. Blood from each mouse was taken in time frame of 10 min, 1, 2 and 3 days. […] of obtained serum was used in binding assay with Ephrin-B2-Alkaline Phosphatase fusion protein and Streptavidin-coated magnetic beads as a solid phase. Signals, obtained at 10 min were taken as 100%. The two mice for each protein were of a different strain.

EphB4 receptor = assay: Cell-based EphB4 tyrosine kinase assay in PC3 cells; design: species or system human; conditions: Ephrin B2-Fc ligand preincubated with protein
Description: All four proteins were also tested for their ability to block ligand-dependent dimerization and activation of Eph B4 receptor kinase in PC3 cells. The PC3 human prostate cancer cell line is known to express elevated levels of human Eph B4. Stimulation of PC3 cells with Ephrin B2 IgG Fc fusion protein leads to a rapid induction of tyrosine phosphorylation of the receptor. However, preincubation of the ligand with GCF2, GCF1 or GC, but not CF2 proteins suppresses subsequent EphB4 autophosphorylation.
The human prostate carcinoma cell line PC3 cells were maintained in RPMI medium with 10% dialyzed fetal calf serum and 1% penicillin/streptomycin/neomycin antibiotics mix. Cells were maintained at 37° C. in a humidified atmosphere of 5% CO2/95% air. Typically, cells were grown in 60 mm dishes until confluency and were either treated with mouse Ephrin B2-Fc fusion at 1 μg/ml in RPMI for 10 min to activate EphB4 receptor or plain medium as a control. To study the effect of different derivatives of soluble EphB4 ECD proteins on EphB4 receptor activation, three sets of cells were used. In the first set, cells were treated with various proteins (5 proteins; GC, GCF1, GCF2, GCF2-F, CF2) at 5 μg/ml for 20 min. In the second set of cells, prior to application, proteins were premixed with ephrinB2-Fc at 1:5 (EphB4 protein:B2-Fc) molar ratio, incubated for 20 min and applied on cells for 10 min. In the third set of cells, cells were first treated with the proteins for 20 min at 5 μg/ml, media was replaced with fresh media containing 1 μg/ml of EphrinB2-Fc and incubated for another 10 min.
After the stimulation, cells were immediately harvested with protein extraction buffer containing 20 mM Tris-HCl, pH 7.4, 150 mM NaCl, 1% (v/v) Triton X100, 1 mM EDTA, 1 mM PMSF, 1 mM Sodium vanadate. Protein extracts were clarified by centrifugation at 14,000 rpm for 20 min at 4° C. Clarified protein samples were incubated overnight with protein A/G coupled agarose beads pre-coated with anti-EphB4 monoclonal antibodies. The IP complexes were washed twice with the same extraction buffer containing 0.1% Triton X100. The immunoprecipitated proteins were solubilized in 1×SDS-PAGE sample loading buffer and separated on 10% SDS-PAGE. For EphB4 receptor activation studies, electroblotted membrane was probed with anti-pTyr specific antibody 4G10 at 1:1000 dilution followed by Protein G-HRP conjugate at 1:5000 dilutions.

EphrinB2 [3] = biological target: T1, EphrinB2; assay: Ephrin B2-AP binding to immobilized EphB4EC proteins; conditions: B4 proteins immobilized on Ni2+-resin or nitrocellulose
Description: 10 μl of Ni-NTA-Agarose were incubated in microcentrifuge tubes with 50 μl of indicated amount of B4ECv3 diluted in binding buffer BB (20 mM Tris-HCl, 0.15 M NaCl, 0.1% bovine serum albumin pH 8) After incubation for 30 min on shaking platform, Ni-NTA beads were washed twice with 1.4 ml of BB, followed by application of 50 μl of B2-AP in the final concentration of 50 nM. Binding was performed for 30 min on shaking platform, and then tubes were centrifuged and washed one time with 1.4 ml of BB. Amount of precipitated AP was measured colorimetrically after application of PNPP.
To confirm ability of the purified recombinant proteins to bind Ephrin B2, they were tested in an in vitro binding assay. As expected, GC, GCF1 and GCF2, but not CF2 are binding the cognate ligand Ephrin B2 as confirmed by interaction between Ephrin B2-alkaline phosphatase (Ephrin B2-AP) fusion protein with the B4 proteins immobilized on Ni^2+-resin or on nitrocellulose membrane (FIG. 17).

[4] = In vitro stability in mouse serum (retained B2-AP binding); type: in vitro ADME
Description: Both soluble EphB4 ectodomain protein (sB4) and EphB4 ectodomain fused to HSA (HSA-sB4) were biotin labeled through carbohydrate chains using sodium meta-periodate as an oxidant and EZ-Link Biotin Hydrazide (PIERCE, Cat. #21339) according to manufacture's protocol. The in vitro stability of the biotinylated sB4 protein was tested by incubating […] with 40 μL of mouse serum at 37° C. for 0, 0.5, 1, 2 and 3 days. Two μL of magnetic beads and B2-AP was added for an extra hour at room temperature. After washing twice with buffer, pnPP was added for 1 hour.
The fractions were also tested for their stability in vitro. The fractions were tested for retention of EphrinB2 binding activity after incubation in mouse serum at 37° C. for three days.

[5] = retention of EphrinB2 binding, mouse serum, 37° C., three days

T1 sequence (P52799 28-229 limits assumed): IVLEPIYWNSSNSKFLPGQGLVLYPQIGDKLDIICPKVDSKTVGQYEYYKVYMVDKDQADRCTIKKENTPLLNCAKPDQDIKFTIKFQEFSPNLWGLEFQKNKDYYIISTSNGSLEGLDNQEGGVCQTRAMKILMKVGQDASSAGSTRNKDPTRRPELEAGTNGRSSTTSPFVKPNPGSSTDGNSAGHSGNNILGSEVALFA

## B4-HSA: EphB4 ectodomain fused to human serum albumin, mature form SEQ ID NO:19
EphrinB2 [1]
  binding activity towards EphrinB2: retain most of its binding activity
  binding to EphrinB2 compared with the B4-Fc fusion: superior
[2]
  stability in vivo relative to sB4 / EphB4 ectodomain: superior stability
[2]; one day after injection, i.v. 0.5 nmoles per mouse
  levels in the blood relative to sB4: 5 fold

## EphB4 ectodomain fusion to the C-terminus of HSA: EphB4 ectodomain fused to the C-terminus of HSA
EphrinB2 [1]
  binding activity towards EphrinB2: retain the ability to bind
[2]
  stability in vivo relative to sB4 / EphB4 ectodomain: enhanced stability

B1: CF2: EphB4 ECD version with deleted globular domain, SEQ ID NO:15 (protein)
chain: MELRVLLCWASLAAALEETLLNTKLETQLTVNLTRFPETVPRELVVPVAGSCVVDAVPAPGPSPSLYCREDGQWAEQPVTGCSCAPGFEAAEGNTKCRACAQGTFKPLSGEGSCQPCPANSHSNTIGSAVCQCRVGYFRARTDPRGAPCTTPPSAPRSVVSRLNGSSLHLEWSAPLESGGREDLTYALRCRECRPGGSCAPCGGDLTFDPGPRDLVEPWVVVRGLRPDFTYTFEVTALNGVSSLATGPVPFEPVNVTTDREVPPAVSDIRVTRSSPSSLSLAWAVPRAPSGAWLDYEVKYHEKGAEGPSSVRFLKTSENRAELRGLKRGASYLVQVRARSEAGYGPFGQEHHSQTQLDESEGWREQGGRSSLEGPRFEGKPIPNPLLGLDSTRTGHHHHHH
modifications: Recombinant B4-CF2
EphB4 receptor
  EphB4 autophosphorylation: not
EphrinB2 [3]
  binding the cognate ligand Ephrin B2: not

B2: sB4: soluble EphB4 ectodomain protein, biotin labeled through carbohydrate chains; SP column fraction 3 (protein)
chain: LEETLLNTKLETADLKWVTFPQVDGQWEELSGLDEEQHSVRTYEVCDVQRAPGQAHWLRTGWVPRRGAVHVYATLRFTMLECLSLPRAGRSCKETFTVFYYESDADTATALTPAWMENPYIKVDTVAAEHLTRKRPGAEATGKVNVKTLRLGPLSKAGFYLAFQDQGACMALLSLHLFYKKCAQLTVNLTRFPETVPRELVVPVAGSCVVDAVPAPGPSPSLYCREDGQWAEQPVTGCSCAPGFEAAEGNTKCRACAQGTFKPLSGEGSCQPCPANSHSNTIGSAVCQCRVGYFRARTDPRGAPCTTPPSAPRSVVSRLNGSSLHLEWSAPLESGGREDLTYALRCRECRPGGSCAPCGGDLTFDPGPRDLVEPWVVVRGLRPDFTYTFEVTALNGVSSLATGPVPFEPVNVTTDREVPPAVSDIRVTRSSPSSLSLAWAVPRAPSGAVLDYEVKYHEKGAEGPSSVRFLKTSENRAELRGLKRGASYLVQVRARSEAGYGPFGQEHHSQTQLDESEGWREQLA
[4]
  B2 binding activity lost: less than 10%
  order of in vitro stability: monopegylated>unpegylated>polypegylated
EphrinB2 [1]
  order of binding activity: Unpegylated>monopegylated>polypegylated

B3: monopegylated: fraction 2: monopegylated biotinylated sB4, linear PEG-succinimidyl propionate of about 20 kda (conjugate)
chain: B2 chain
[4]; [5]
  order of in vitro stability: monopegylated>unpegylated>polypegylated
EphrinB2 [1]
  order of binding activity: Unpegylated>monopegylated>polypegylated

B4: polypegylated: fraction 1: polypegylated biotinylated sB4, linear PEG-succinimidyl propionate of about 20 kda (conjugate)
chain: B2 chain
[4]; [5]
  order of in vitro stability: monopegylated>unpegylated>polypegylated
EphrinB2 [1]
  order of binding activity: Unpegylated>monopegylated>polypegylated

B5: GCF2: recombinant protein containing the complete ectopic part of EphB4, 6xHis tagged, SEQ ID NO:14 (protein)
chain: MELRVLLCWASLAAALEETLLNTKLETADLKWVTFPQVDGQWEELSGLDEEQHSVRTYEVCEVQRAPGQAHWLRTGWVPRRGAVHVYATLRFTMLECLSLPRAGRSCKETFTVFYYESDADTATALTPAWMENPYIKVDTVAAEHLTRKRPGAEATGKVNVKTLRLGPLSKAGFYLAFQDQGACMALLSLHLFYKKCAQLTVNLTRFPETVPRELVVPVAGSCVVDAVPAPGPSPSLYCREDGQWAEQPVTGCSCAPGFEAAEGNTKCRACAQGTFKPLSGEGSCQPCPANSHSNTIGSAVCQCRVGYFRARTDPRGAPCTTPPSAPRSVVSRLNGSSLHLEWSAPLESGGREDLTYALRCRECRPGGSCAPCGGDLTFDPGPRDLVEPWVVVRGLRPDFTYTFEVTALNGVSSLATGPVPFEPVNVTTDREVPPAVSDIRVTRSSPSSLSLAWAVPRAPSGAWLDYEVKYHEKGAEGPSSVRFLKTSENRAELRGLKRGASYLVQVRARSEAGYGPFGQEHHSQTQLDESEGWREQGSKRAILQIEGKPIPNPLLGLDSTRTGHHHHHH
modifications: Recombinant FL-hB4EC
EphB4 receptor
  EphB4 autophosphorylation: suppresses
EphrinB2 [3]
  binding the cognate ligand Ephrin B2: binding
